Here are results for six molecules from US20260265379A1 (IMCHECK THERAPEUTICS, published 2026).

A word on the Kd: it is the free concentration of one partner at which half of the binding sites on the other are occupied at equilibrium, for simple one-to-one binding.

Assay [1] has as its target T1, BTN3A1 at the surface of HEK-BTN3A1 cells (human, UniProt O00481 30-513).
T1 construct: HEK 293T BTN2A/BTN3A KO cells transduced with a BTN3A1 expressing vector
The assay can be described thus: flow cytometry, HEK-BTN3A1 cells. (A flow cytometer gives signals particle by particle.)

The target in another assay is T2, recombinant human BTN3A1 (human, UniProt O00481 30-254).
T2 construct: Soluble form of the antigen used in SPR; also called rhBTN3A1; recombinant BTN3A1 protein
T2 sequence (O00481 30-254 limits assumed): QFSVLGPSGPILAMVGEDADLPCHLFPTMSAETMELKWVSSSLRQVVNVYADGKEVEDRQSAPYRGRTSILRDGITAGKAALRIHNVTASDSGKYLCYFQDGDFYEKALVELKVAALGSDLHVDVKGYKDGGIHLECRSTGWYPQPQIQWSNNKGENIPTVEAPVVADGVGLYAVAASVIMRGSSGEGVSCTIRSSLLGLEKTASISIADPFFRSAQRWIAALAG
The assay is described as follows: SPR. (In general: SPR reads the build-up and loss of mass on a sensor chip optically.)

The next assay addresses T3, recombinant human PD-L1 (human, UniProt Q9NZQ7 19-239, limits assumed).
T3 construct: Soluble antigen in SPR; also called rhPD-L1
The assay is described as follows: SPR.

The target of assay [2] is T4, PD-L1 at the surface of transduced cells (UniProt Q9NZQ7 19-290, limits assumed).
T4 construct: whole, on cells; CHO-PD-L1 cells in flow cytometry, Raji-PD-L1 cells in the reporter assay; also called CHO-PD-L1; Raji-PD-L1
T4 sequence (Q9NZQ7 19-290 limits assumed): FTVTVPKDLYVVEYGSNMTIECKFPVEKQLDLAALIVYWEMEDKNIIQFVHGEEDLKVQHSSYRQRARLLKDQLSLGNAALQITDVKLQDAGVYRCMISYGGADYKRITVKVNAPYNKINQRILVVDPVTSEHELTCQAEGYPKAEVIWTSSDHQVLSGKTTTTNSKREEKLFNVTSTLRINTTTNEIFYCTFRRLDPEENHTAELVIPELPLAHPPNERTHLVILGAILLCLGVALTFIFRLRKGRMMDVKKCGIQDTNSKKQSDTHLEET
The assay can be described thus: flow cytometry, CHO-PD-L1 cells.

T3 sequence (Q9NZQ7 19-239 limits assumed): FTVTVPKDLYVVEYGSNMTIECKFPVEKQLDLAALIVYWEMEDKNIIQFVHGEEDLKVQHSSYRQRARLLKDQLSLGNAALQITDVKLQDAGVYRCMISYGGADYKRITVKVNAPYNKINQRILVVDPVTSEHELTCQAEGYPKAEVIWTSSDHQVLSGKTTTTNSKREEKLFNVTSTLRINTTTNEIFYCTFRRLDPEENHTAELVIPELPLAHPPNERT
T1 sequence (O00481 30-513 limits assumed): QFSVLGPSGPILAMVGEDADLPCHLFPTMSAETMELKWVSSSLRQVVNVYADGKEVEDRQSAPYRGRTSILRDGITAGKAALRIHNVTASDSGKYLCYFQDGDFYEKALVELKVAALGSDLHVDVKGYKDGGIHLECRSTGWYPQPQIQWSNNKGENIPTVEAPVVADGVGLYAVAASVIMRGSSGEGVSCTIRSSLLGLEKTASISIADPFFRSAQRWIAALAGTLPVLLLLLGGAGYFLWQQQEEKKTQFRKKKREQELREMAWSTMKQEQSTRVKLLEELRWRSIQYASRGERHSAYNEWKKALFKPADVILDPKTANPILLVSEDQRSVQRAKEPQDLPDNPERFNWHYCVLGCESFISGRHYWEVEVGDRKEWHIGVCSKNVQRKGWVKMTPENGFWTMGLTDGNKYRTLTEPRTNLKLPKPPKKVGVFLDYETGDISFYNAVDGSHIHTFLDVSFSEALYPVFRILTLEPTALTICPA

B1: bsAb051 (bispecific antibody)
heavy (part 1 of 2): QVQLVQSGAEVKKPGASVKLSCKASGYIFTRYYMYWVKQRPGQGLEWIGEINPNNGGTKFNEKFKNRATLTVDKSISTAYMELSRLRSDDTAVYYCSREDDYDGTPFAMDYWGQGTLVTVSS
heavy (part 2 of 2): GGGGSGGGGSGGGGSGGGGSEVQLVESGGGLVQPGGSLRLSCAASGFTFSRYWMSWVRQAPGKGLEWVANIKQDGSEKYYVDSVKGRFTISRDNAKNSLYLQMNSLRAEDTAVYYCAREGGWFGELAFDYWGQGTLVTVSSGGGGSGGGGSGGGGSGGGGSEIVLTQSPGTLSLSPGERATLSCRASQRVSSSYLAWYQQKPGQAPRLLIYDASSRATGIPDRFSGSGSGTDFTLTISRLEPEDFAVYYCQQYGSLPWTFGQGTKVEIK
heavy: GGGGSGGGGSGGGGSGGGGSEVQLVESGGGLVQPGGSLRLSCAASGFTFSRYWMSWVRQAPGKGLEWVANIKQDGSEKYYVDSVKGRFTISRDNAKNSLYLQMNSLRAEDTAVYYCAREGGWFGELAFDYWGQGTLVTVSSGGGGSGGGGSGGGGSGGGGSEIVLTQSPGTLSLSPGERATLSCRASQRVSSSYLAWYQQKPGQAPRLLIYDASSRATGIPDRFSGSGSGTDFTLTISRLEPEDFAVYYCQQYGSLPWTFGQGTKVEIK
light: not shown
notes: one Fab arm anti-BTN3A, two scFv anti-PD-L1; not shown: IgG1 CH1-hinge-CH2-CH3; CH2-CH3 (Fc)
On to B1, for which the “MFI at 10 nM” value in assay [1] amounted to 340000 MFI; in assay [2], 578000 MFI. Moreover, the “MFI at 100 nM” value was 792000 MFI in assay [1] and 597000 MFI in assay [2]. For the same molecule, the Kd in the assay with recombinant human BTN3A1 is 0.095 nM; with recombinant human PD-L1, 0.033 nM.

B2: bsAb020 (bispecific antibody)
heavy: DIQMTQSPSSLSASVGDRVTITCHASQNINVWLSWYQQKPGKAPKLLIYKASNLHTGVPSRFTGSGSGTDFTFTISSLQPEDIATYYCQQGQTYPYTFGQGTKLEIKGGGGSGGGGSGGGGSGGGGSQVQLVQSGAEVKKPGASVKLSCKASGYIFTRYYMYWVKQRPGQGLEWIGEINPNNGGTKFNEKFKNRATLTVDKSISTAYMELSRLRSDDTAVYYCSREDDYDGTPFAMDYWGQGTLVTVSSGGGGSGGGGSGGGGSGGGGSEVQLVESGGGLVQPGGSLRLSCAASGFTFSRYWMSWVRQAPGKGLEWVANIKQDGSEKYYVDSVKGRFTISRDNAKNSLYLQMNSLRAEDTAVYYCAREGGWFGELAFDYWGQGTLVTVSSASTKGPSVFPLAPSSKSTSGGTAALGCLVKDYFPEPVTVSWNSGALTSGVHTFPAVLQSSGLYSLSSVVTVPSSSLGTQTYICNVNHKPSNTKVDKRVEPKSCDKTHTCPPCPAPEFEGGPSVFLFPPKPKDTLMISRTPEVTCVVVDVSHEDPEVKFNWYVDGVEVHNAKTKPREEQYNSTYRVVSVLTVLHQDWLNGKEYKCKVSNKALPASIEKTISKAKGQPREPQVYTLPPSREEMTKNQVSLTCLVKGFYPSDIAVEWESNGQPENNYKTTPPVLDSDGSFFLYSKLTVDKSRWQQGNVFSCSVMHEALHNHYTQKSLSLSPG
light: EIVLTQSPGTLSLSPGERATLSCRASQRVSSSYLAWYQQKPGQAPRLLIYDASSRATGIPDRFSGSGSGTDFTLTISRLEPEDFAVYYCQQYGSLPWTFGQGTKVEIKRTVAAPSVFIFPPSDEQLKSGTASVVCLLNNFYPREAKVQWKVDNALQSGNSQESVTEQDSKDSTYSLSSTLTLSKADYEKHKVYACEVTHQGLSSPVTKSFNRGEC
notes: IgG anti-PD-L1, scFv anti-BTN3A
Take B2: the results for the “MFI at 10 nM” value in assay [1] and in assay [2] were 997000 MFI and 746000 MFI, respectively. Further, the “MFI at 100 nM” value was found to be 1.5e+06 MFI in assay [1] and 784000 MFI in assay [2]. Further, the Kd amounted to 0.114 nM in the assay with recombinant human BTN3A1 and 0.073 nM in the assay with recombinant human PD-L1.

B3: bsAb041 (bispecific antibody)
heavy (part 1 of 2): EVQLVESGGGLVQPGGSLRLSCAASGFTFSRYWMSWVRQAPGKGLEWVANIKQDGSEKYYVDSVKGRFTISRDNAKNSLYLQMNSLRAEDTAVYYCAREGGWFGELAFDYWGQGTLVTVSS
heavy (part 2 of 2): GGGGSGGGGSGGGGSGGGGSDIQMTQSPSSLSASVGDRVTITCHASQNINVWLSWYQQKPGKAPKLLIYKASNLHTGVPSRFTGSGSGTDFTFTISSLQPEDIATYYCQQGQTYPYTFGQGTKLEIKGGGGSGGGGSGGGGSGGGGSQVQLVQSGAEVKKPGASVKLSCKASGYIFTRYYMYWVKQRPGQGLEWIGEINPNNGGTKFNEKFKNRATLTVDKSISTAYMELSRLRSDDTAVYYCSREDDYDGTPFAMDYWGQGTLVTVSS
heavy: GGGGSGGGGSGGGGSGGGGSDIQMTQSPSSLSASVGDRVTITCHASQNINVWLSWYQQKPGKAPKLLIYKASNLHTGVPSRFTGSGSGTDFTFTISSLQPEDIATYYCQQGQTYPYTFGQGTKLEIKGGGGSGGGGSGGGGSGGGGSQVQLVQSGAEVKKPGASVKLSCKASGYIFTRYYMYWVKQRPGQGLEWIGEINPNNGGTKFNEKFKNRATLTVDKSISTAYMELSRLRSDDTAVYYCSREDDYDGTPFAMDYWGQGTLVTVSS
light: EIVLTQSPGTLSLSPGERATLSCRASQRVSSSYLAWYQQKPGQAPRLLIYDASSRATGIPDRFSGSGSGTDFTLTISRLEPEDFAVYYCQQYGSLPWTFGQGTKVEIKRTVAAPSVFIFPPSDEQLKSGTASVVCLLNNFYPREAKVQWKVDNALQSGNSQESVTEQDSKDSTYSLSSTLTLSKADYEKHKVYACEVTHQGLSSPVTKSFNRGEC
notes: one Fab arm anti-PD-L1, two scFv anti-BTN3A; not shown: IgG1 CH1-hinge-CH2-CH3; CH2-CH3 (Fc)
For B3, the results for the “MFI at 10 nM” value in assay [1] and in assay [2] were 1.1e+06 MFI and 1.14e+06 MFI, respectively. In addition, the “MFI at 100 nM” value was 1.67e+06 MFI in assay [1] and 1.3e+06 MFI in assay [2]. Moreover, the Kd in the assay with recombinant human BTN3A1 turned out to be 0.101 nM; with recombinant human PD-L1 it was 0.053 nM.

B4: bsAb054 (bispecific antibody)
heavy (part 1 of 2): EVQLVESGGGLVQPGGSLRLSCAASGFTFSRYWMSWVRQAPGKGLEWVANIKQDGSEKYYVDSVKGRFTISRDNAKNSLYLQMNSLRAEDTAVYYCAREGGWFGELAFDYWGQGTLVTVSS
heavy (part 2 of 2): GGGGSGGGGSGGGGSGGGGSQVQLVQSGAEVKKPGASVKLSCKASGYIFTRYYMYWVKQRPGQGLEWIGEINPNNGGTKFNEKFKNRATLTVDKSISTAYMELSRLRSDDTAVYYCSREDDYDGTPFAMDYWGQGTLVTVSSGGGGSGGGGSGGGGSGGGGSDIQMTQSPSSLSASVGDRVTITCHASQNINVWLSWYQQKPGKAPKLLIYKASNLHTGVPSRFTGSGSGTDFTFTISSLQPEDIATYYCQQGQTYPYTFGQGTKLEIK
heavy: EVQLVESGGGLVQPGGSLRLSCAASGFTFSRYWMSWVRQAPGKGLEWVANIKQDGSEKYYVDSVKGRFTISRDNAKNSLYLQMNSLRAEDTAVYYCAREGGWFGELAFDYWGQGTLVTVSS
light: EIVLTQSPGTLSLSPGERATLSCRASQRVSSSYLAWYQQKPGQAPRLLIYDASSRATGIPDRFSGSGSGTDFTLTISRLEPEDFAVYYCQQYGSLPWTFGQGTKVEIKRTVAAPSVFIFPPSDEQLKSGTASVVCLLNNFYPREAKVQWKVDNALQSGNSQESVTEQDSKDSTYSLSSTLTLSKADYEKHKVYACEVTHQGLSSPVTKSFNRGEC
notes: IgG anti-PD-L1, one scFv anti-BTN3A; not shown: IgG1 CH1-hinge-CH2-CH3
For B4, the “MFI at 10 nM” value in assay [1] turned out to be 424000 MFI; in assay [2] it was 664000 MFI. Moreover, the results for the “MFI at 100 nM” value in assay [1] and in assay [2] were 1.06e+06 MFI and 690000 MFI, respectively. The Kd with recombinant human BTN3A1 was found to be 0.126 nM; in the assay with recombinant human PD-L1, 0.033 nM.

B5: bsAb036 (bispecific antibody)
heavy (part 1 of 2): EVQLVESGGGLVQPGGSLRLSCAASGFTFSRYWMSWVRQAPGKGLEWVANIKQDGSEKYYVDSVKGRFTISRDNAKNSLYLQMNSLRAEDTAVYYCAREGGWFGELAFDYWGQGTLVTVSS
heavy (part 2 of 2): GGGGSGGGGSGGGGSGGGGSQVQLVQSGAEVKKPGASVKLSCKASGYIFTRYYMYWVKQRPGQGLEWIGEINPNNGGTKFNEKFKNRATLTVDKSISTAYMELSRLRSDDTAVYYCSREDDYDGTPFAMDYWGQGTLVTVSSGGGGSGGGGSGGGGSGGGGSDIQMTQSPSSLSASVGDRVTITCHASQNINVWLSWYQQKPGKAPKLLIYKASNLHTGVPSRFTGSGSGTDFTFTISSLQPEDIATYYCQQGQTYPYTFGQGTKLEIK
heavy: GGGGSGGGGSGGGGSGGGGSQVQLVQSGAEVKKPGASVKLSCKASGYIFTRYYMYWVKQRPGQGLEWIGEINPNNGGTKFNEKFKNRATLTVDKSISTAYMELSRLRSDDTAVYYCSREDDYDGTPFAMDYWGQGTLVTVSSGGGGSGGGGSGGGGSGGGGSDIQMTQSPSSLSASVGDRVTITCHASQNINVWLSWYQQKPGKAPKLLIYKASNLHTGVPSRFTGSGSGTDFTFTISSLQPEDIATYYCQQGQTYPYTFGQGTKLEIK
light: EIVLTQSPGTLSLSPGERATLSCRASQRVSSSYLAWYQQKPGQAPRLLIYDASSRATGIPDRFSGSGSGTDFTLTISRLEPEDFAVYYCQQYGSLPWTFGQGTKVEIKRTVAAPSVFIFPPSDEQLKSGTASVVCLLNNFYPREAKVQWKVDNALQSGNSQESVTEQDSKDSTYSLSSTLTLSKADYEKHKVYACEVTHQGLSSPVTKSFNRGEC
notes: as for B3
Regarding B5, the “MFI at 10 nM” value in assay [1] was found to be 682000 MFI; in assay [2] it was 1.03e+06 MFI. In addition, the results for the “MFI at 100 nM” value in assay [1] and in assay [2] were 1.22e+06 MFI and 1.24e+06 MFI, respectively. Moreover, the Kd with recombinant human BTN3A1 came out at 0.457 nM; with recombinant human PD-L1 it was 0.055 nM.

B6: bsAb024 (bispecific antibody)
heavy: QVQLVQSGAEVKKPGASVKLSCKASGYIFTRYYMYWVKQRPGQGLEWIGEINPNNGGTKFNEKFKNRATLTVDKSISTAYMELSRLRSDDTAVYYCSREDDYDGTPFAMDYWGQGTLVTVSSGGGGSGGGGSGGGGSGGGGSDIQMTQSPSSLSASVGDRVTITCHASQNINVWLSWYQQKPGKAPKLLIYKASNLHTGVPSRFTGSGSGTDFTFTISSLQPEDIATYYCQQGQTYPYTFGQGTKLEIKGGGGSGGGGSGGGGSGGGGSEVQLVESGGGLVQPGGSLRLSCAASGFTFSRYWMSWVRQAPGKGLEWVANIKQDGSEKYYVDSVKGRFTISRDNAKNSLYLQMNSLRAEDTAVYYCAREGGWFGELAFDYWGQGTLVTVSSASTKGPSVFPLAPSSKSTSGGTAALGCLVKDYFPEPVTVSWNSGALTSGVHTFPAVLQSSGLYSLSSVVTVPSSSLGTQTYICNVNHKPSNTKVDKRVEPKSCDKTHTCPPCPAPEFEGGPSVFLFPPKPKDTLMISRTPEVTCVVVDVSHEDPEVKFNWYVDGVEVHNAKTKPREEQYNSTYRVVSVLTVLHQDWLNGKEYKCKVSNKALPASIEKTISKAKGQPREPQVYTLPPSREEMTKNQVSLTCLVKGFYPSDIAVEWESNGQPENNYKTTPPVLDSDGSFFLYSKLTVDKSRWQQGNVFSCSVMHEALHNHYTQKSLSLSPG
light: EIVLTQSPGTLSLSPGERATLSCRASQRVSSSYLAWYQQKPGQAPRLLIYDASSRATGIPDRFSGSGSGTDFTLTISRLEPEDFAVYYCQQYGSLPWTFGQGTKVEIKRTVAAPSVFIFPPSDEQLKSGTASVVCLLNNFYPREAKVQWKVDNALQSGNSQESVTEQDSKDSTYSLSSTLTLSKADYEKHKVYACEVTHQGLSSPVTKSFNRGEC
notes: as for B2
B6: the “MFI at 100 nM” value in assay [1] came to 1.66e+06 MFI; in assay [2], 794000 MFI. Moreover, the Kd with recombinant human BTN3A1 came out at 0.073 nM; with recombinant human PD-L1, 0.065 nM. Further, the “MFI at 10 nM” value in assay [2] amounted to 762000 MFI.
